Experiments:
[1] = target: T1, CEACAM1-HIS (Sino Biologics Inc.) (Homo sapiens (Human), UniProt P13688 35-428); test: SPR single-cycle, IgG on Protein A
T1 construct: bought; not shown: His tag
T1 sequence: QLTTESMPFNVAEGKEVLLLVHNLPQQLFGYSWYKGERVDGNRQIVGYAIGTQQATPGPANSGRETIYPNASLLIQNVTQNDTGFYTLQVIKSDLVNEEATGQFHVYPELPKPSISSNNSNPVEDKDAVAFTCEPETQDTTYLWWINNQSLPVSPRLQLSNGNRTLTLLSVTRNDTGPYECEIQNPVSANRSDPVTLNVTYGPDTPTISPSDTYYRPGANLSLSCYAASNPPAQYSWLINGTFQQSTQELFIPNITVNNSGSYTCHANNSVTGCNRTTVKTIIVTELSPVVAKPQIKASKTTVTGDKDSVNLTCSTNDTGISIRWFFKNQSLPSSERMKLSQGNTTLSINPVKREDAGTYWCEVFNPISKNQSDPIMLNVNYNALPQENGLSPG
Procedure: (§1) As an alternative approach to assess the binding of the antibody combinations and the control antibodies to CEACAM1, a kinetic analysis was performed on a Biacore T200 running Biacore T200 Evaluation Software V2.0.1. All experiments were run at 25° C. with HBS-P+ running buffer (pH 7.4).
In order to assess the binding of all Composite Human Antibody™ variants, single cycle kinetic analysis was performed on the supernatants of all the transiently transfected HEK EBNA cells. Purified chimeric antibody and purified chimeric antibody spiked into HEK EBNA media were used as positive controls. Supernatants were diluted in HBS-P+ to a concentration of 1 μg/mL (as determined by an IgG quantitation ELISA). At the start of each cycle, antibodies were loaded onto Fc2, Fc3 and Fc4 of a Protein A chip and captured at a flow rate of 8 μL/min to give an RU of ˜100. The surface was then allowed to stabilize. Single cycle kinetic data was obtained at a flow rate of […] to minimize any potential mass transfer effects. Multiple repeats of the chimeric antibody were performed to check the stability of the surface and analyte over the kinetic cycles. The signal from the reference channel Fc1 (no antibody) was subtracted from that of Fc2, Fc3 and Fc4 to correct for differences in non-specific binding to a reference surface. A 5 point 2-fold dilution range from 3.125 to 50 nM CEACAM1 without regeneration between each concentration was used. The association phase for the 5 injections of increasing concentrations of CEACAM1 was monitored for 150 seconds and a single dissociation phase was measured for 150 seconds following the last injection of CEACAM1. Regeneration of the Protein A was conducted using 2 injections of 10 mM glycine-HCL pH 1.5 followed by a stabilization period of 500 seconds.
In the raw sensorgrams for the single cycle kinetics, the signal from each antibody blank run (no CEACAM1) was subtracted to correct for differences in surface stability.

[2] = target: T1, CEACAM1-HIS (Sino Biologics Inc.); test: SPR multi-cycle, IgG on Protein A
Procedure: as §1
For multi-cycle kinetic analysis purified antibody was immobilized at a protein concentration of 1 μg/mL in HBS-P+. At the start of each cycle, antibody was captured on Protein A to give an RU of ˜100 and the surface allowed to stabilize. Kinetic data was obtained at a flow rate of 35 μl/min to minimize any potential mass transfer effects. Multiple repeats of the blank (no CEACAM1) and a repeat of a single concentration of the analyte were programmed into the kinetic run in order to check the stability of both the surface and analyte over the kinetic cycles. For kinetic analysis, a 2-fold dilution series was selected from 100 to 1.5625 nM CEACAM1. The association phase of CEACAM1 was monitored initially for 180 seconds. In the subsequent experiment a longer association time (275 seconds) was used in order to better reach steady state. The dissociation phase was measured for 250 seconds. Regeneration of the Protein A surface was conducted using 2 injections of 10 mM glycine-HCL pH 1.5 at the end of each cycle.
The signal from the reference channel Fc1 was subtracted from that of Fc2, Fc3 and Fc4 to correct for differences in non-specific binding to a reference surface, a global Rmax parameter was used in the 1-to-1 binding model. The relative KD compared to the chimeric parental antibody was calculated by dividing the KD of the Composite Human Antibody™ variants by that of the chimeric parental antibody on the same chip.

human GST-CEACAM1 = target: T2, human GST-CEACAM1 (human, UniProt P13688 35-141, limits assumed); test: competition ELISA vs murine parent antibody
T2 construct: printed both as GST-CEACAM1 and CEACAM1-GST; also called human CEACAM1-GST protein; hCEACAM1-GST; not shown: GST tag
T2 sequence: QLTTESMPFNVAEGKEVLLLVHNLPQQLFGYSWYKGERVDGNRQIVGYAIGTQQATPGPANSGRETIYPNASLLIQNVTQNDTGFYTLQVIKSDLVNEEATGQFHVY
Procedure: The binding of the purified chimeric antibody to human CEACAM1 was assessed in a competition ELISA assay. Nunc Immuno MaxiSorp 96 well flat bottom microtitre plates were pre-coated with 1 μg/ml human GST-CEACAM1 in 1×PBS, overnight at 4° C. The following day the plates were blocked for 1 hour at room temperature with 2% BSA/PBS before washing 2× with PBS/0.05% Tween 20 pH 7.4.
The binding of the purified antibodies to human CEACAM1 were assessed in a competition ELISA assay as described above. The ability of each variant to compete against the murine parental antibody for binding to the GST-CEACAM1 was compared to that of the chimeric antibody (VH0/Vκ0), which was included on each plate.

[3] = target: T1, CEACAM1-HIS (Sino Biologics Inc.); test: SPR multi-cycle
[4] = target: T3, CEACAM1 (Sino Biological) (human, UniProt P13688 35-428, limits assumed); test: SPR single-cycle
T3 construct: may be the same as CEACAM1-HIS; also called hCEACAM1; biotinylated soluble CEACAM1
T3 sequence: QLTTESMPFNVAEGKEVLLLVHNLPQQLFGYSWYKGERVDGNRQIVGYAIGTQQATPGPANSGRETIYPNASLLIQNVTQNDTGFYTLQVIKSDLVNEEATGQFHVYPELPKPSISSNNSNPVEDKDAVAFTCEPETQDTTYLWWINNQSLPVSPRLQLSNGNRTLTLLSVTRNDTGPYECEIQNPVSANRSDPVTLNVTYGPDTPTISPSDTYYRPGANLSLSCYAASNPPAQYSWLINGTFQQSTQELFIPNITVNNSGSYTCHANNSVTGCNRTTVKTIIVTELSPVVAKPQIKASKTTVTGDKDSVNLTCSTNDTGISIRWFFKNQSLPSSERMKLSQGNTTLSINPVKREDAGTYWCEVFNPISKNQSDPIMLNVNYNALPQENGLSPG
How it was run: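 Humanized affinity-matured IgGs from crude supernatants captured on Protein A to ~100 RU, with CEACAM1 analyte injected at 25–100 nM (three-point, two-fold) in HBS-P+ without regeneration. 200 s association per injection, 300 s single dissociation; reference-channel and blank subtracted.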

[5] = target: T3, CEACAM1 (Sino Biological); test: SPR multi-cycle, IgG on Protein A
Procedure: Multi-cycle kinetics analysis was performed on the twelve lead antibodies using a Biacore T200 instrument running Biacore T200 Evaluation Software V3.0.1 (Uppsala, Sweden) to establish an accurate affinity for CEACAM1. The purified antibodies were diluted to a concentration of […] in HBS-P+. At the start of each cycle, each antibody was captured on the Protein A surface to give an RL of ˜100 RU. Following capture, the surface was allowed to stabilize. Kinetic data was obtained using a flow rate of […] to minimize any potential mass transfer effects. For the kinetics analysis, CEACAM1 was used. Multiple repeats of the blank ([…]) and a repeat of a single concentration of the analyte were programmed into the kinetic run in order to check the stability of both the surface and analyte over the kinetic cycles. For kinetic analysis, a two-fold dilution range was selected from 200 to 3.125 nM CEACAM1. The association phase of CEACAM1 was monitored for 275 seconds and the dissociation phase was measured for 250 seconds. Regeneration of the Protein A surface was conducted using two injections of 10 mM glycine-HCL pH 1.5 at the end of each cycle.
The signal from the reference channel Fc1 was subtracted from that of Fc2, Fc3 and Fc4 to correct for differences in non-specific binding to a reference surface, and a global Rmax parameter was used in the 1-to-1 binding model. The relative KD was calculated by dividing the KD of the RSB02 Parent by that of the humanized and affinity matured variants on the same chip.

[6] = target: T4, CEACAM3 (Sino Biological) (human, UniProt P40198 35-155, limits assumed); test: binding ELISA on plate-coated CEACAM (0.5 µg/mL); antibody at 1.67, 0.062 and 0.0069 µg/mL; signal as % of parent IgG on CEACAM1 at 1.67 µg/mL on the same plate
T4 construct: also called hCEACAM3
T4 sequence (looked up): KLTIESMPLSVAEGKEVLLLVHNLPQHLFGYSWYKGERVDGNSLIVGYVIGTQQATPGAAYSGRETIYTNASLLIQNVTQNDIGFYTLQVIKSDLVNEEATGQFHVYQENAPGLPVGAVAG

Binder | Kd [1] | relative KD to chimeric parental antibody [1] | Kd [2] | koff [2] | kon [2] | relative KD to chimeric parental antibody [2] | average relative IC50 (normalized to chimeric antibody) (human GST-CEACAM1) | average relative KD to chimeric parental antibody [3] | relative KD to chimeric parental antibody expt 1 [3] | relative KD to chimeric parental antibody expt 2 [3] | Kd [4] | fold better than Parent (KD) [4] | Kd [5] | koff [5] | kon [5] | relative KD to Parent [5] | binding result [6]
VH1/Vκ1 (antibody, V domains shown) VH: EVQLLESGGGLVQPGGSLRLSCAASGFIFSSHGMSWVRQAPGKGLEWVATISSGGTYTYYPDSVKGRFTISRDNSKNTLYLQMNSLKAEDTAMYYCARHDFDYDAAWFAYWGQGTLVTVSS VL: QIVLTQSPALLSLSPGERATMSCSANSSVSYMYWYRQKPGQAPKPWIYLTSNLASGVPARFSGSGSGTDYTLTISSLEAEDFATYYCQQWSSNPPTFGQGTKLEIK | 0.0934 µM | 2.2 ratio | 0.0381 µM | 0.00384 s⁻¹ | 101000 M⁻¹ s⁻¹ | 1.4 ratio | 1.5 ratio | 1.45 ratio | 1.5 ratio | 1.4 ratio | – | – | – | – | – | – | –
VH2/Vκ1 (antibody, V domains shown) VH: EVQLLESGGGLVQPGGSLRLSCAASGFIFSSHGMSWVRQAPGKGLEWVATISSGGTYTYYPDSVKGRFTISRDNSKNTLYLQMNSLRAEDTAMYYCARHDFDYDAAWFAYWGQGTLVTVSS VL: QIVLTQSPALLSLSPGERATMSCSANSSVSYMYWYRQKPGQAPKPWIYLTSNLASGVPARFSGSGSGTDYTLTISSLEAEDFATYYCQQWSSNPPTFGQGTKLEIK | 0.18 µM | 4.2 ratio | 0.0333 µM | 0.0052 s⁻¹ | 156000 M⁻¹ s⁻¹ | 1.22 ratio | 1.7 ratio | 1.31 ratio | 1.39 ratio | 1.22 ratio | – | – | – | – | – | – | –
VH2/Vκ2 (antibody, V domains shown) VH: EVQLLESGGGLVQPGGSLRLSCAASGFIFSSHGMSWVRQAPGKGLEWVATISSGGTYTYYPDSVKGRFTISRDNSKNTLYLQMNSLRAEDTAMYYCARHDFDYDAAWFAYWGQGTLVTVSS VL: EIVLTQSPATLSLSPGERATLSCRANSSVSYMYWYQQKPGQAPRPWIYLTSNRATGVPARFSGSGSGTDYTLTISSLEPEDFATYYCQQWSSNPPTFGQGTKLEIK | 0.138 µM | 3.2 ratio | 0.0278 µM | 0.00496 s⁻¹ | 179000 M⁻¹ s⁻¹ | 1.25 ratio | 1.6 ratio | 1.27 ratio | 1.29 ratio | 1.25 ratio | – | – | – | – | – | – | –
VH1/Vκ2 (antibody, V domains shown) VH: EVQLLESGGGLVQPGGSLRLSCAASGFIFSSHGMSWVRQAPGKGLEWVATISSGGTYTYYPDSVKGRFTISRDNSKNTLYLQMNSLKAEDTAMYYCARHDFDYDAAWFAYWGQGTLVTVSS VL: EIVLTQSPATLSLSPGERATLSCRANSSVSYMYWYQQKPGQAPRPWIYLTSNRATGVPARFSGSGSGTDYTLTISSLEPEDFATYYCQQWSSNPPTFGQGTKLEIK | 0.148 µM | 3.4 ratio | 0.0283 µM | 0.00551 s⁻¹ | 195000 M⁻¹ s⁻¹ | 1.27 ratio | 1.3 ratio | 1.46 ratio | 1.66 ratio | 1.27 ratio | – | – | – | – | – | – | –
He17/L1 (antibody, IgG4, V domains shown, IgG4 S241P, kappa; also called 17 / 1; H17/L1) VH: EVQLLESGGGLVQPGGSLRLSCAASGFSFSDYYLYWVRQAPGKGLEWVATISVGGGQTSYADSVKGRFTISRDNSKNTLYLQMNSLRAEDTAMYYCTRARTYGPAWFAYWGQGTLVTVSS VL: DIVMTQSPDSLAVSLGERATINCKSSQSLLNSANQKNYLAWYQQKPGQPPKLLIYFASTRESGVPDRFSGSGSGTDFTLTISSLQAEDVAVYYCQSHYPFYYTFGGGTKVEIK | – | – | – | – | – | – | – | – | – | – | 0.078 µM | 2.03 fold | 0.0135 µM | 0.00409 s⁻¹ | 302000 M⁻¹ s⁻¹ | 6.31 ratio | no binding (tested: 1.67 µg/mL)

Source: patent publication US20250388666A1 (BRIGHAM AND WOMEN S HOSPITAL, published 2025)
